Experimental data from the Immune Epitope Database (IEDB).

Columns and labels:
Assay in all cases: IEDB peptide-MHC binding, purified MHC/competitive/radioactivity; filed as Kd, often an IC50 or EC50 that approximates it; ≥ and ≤ were set here for values at or beyond the usual limits of such assays
Details in all cases: source organism: Toxoplasma gondii
HLA-A*68:02 = molecular target: HLA-A*68:02
HLA-A*02:01 = molecular target: HLA-A*02:01
HLA-A*02:06 = molecular target: HLA-A*02:06
HLA-A*02:02 = molecular target: HLA-A*02:02
HLA-A*02:03 = molecular target: HLA-A*02:03

FLLGLLVHV
Kd (HLA-A*68:02): 173 nM | Kd (HLA-A*02:01): 6.4 nM | Kd (HLA-A*02:06): 9.9 nM | Kd (HLA-A*02:02): 37 nM | Kd (HLA-A*02:03): 4.6 nM

FLSLSLLVI
Kd (HLA-A*68:02): 9830 nM | Kd (HLA-A*02:01): 736 nM | Kd (HLA-A*02:06): ≥ 10000 nM | Kd (HLA-A*02:02): 173 nM | Kd (HLA-A*02:03): 83 nM

FLTDYIPGA
Kd (HLA-A*68:02): 2100 nM | Kd (HLA-A*02:01): 0.7 nM | Kd (HLA-A*02:06): 1.2 nM | Kd (HLA-A*02:02): 7.1 nM | Kd (HLA-A*02:03): 7.8 nM

FMIAFISCFA
Kd (HLA-A*68:02): 397 nM | Kd (HLA-A*02:01): 32 nM | Kd (HLA-A*02:06): 112 nM | Kd (HLA-A*02:02): 56 nM | Kd (HLA-A*02:03): 56 nM

FMIVSISLV
Kd (HLA-A*68:02): 48 nM | Kd (HLA-A*02:01): 16 nM | Kd (HLA-A*02:06): 6.2 nM | Kd (HLA-A*02:02): 1.8 nM | Kd (HLA-A*02:03): ≤ 1 nM

FVIFACNFV
Kd (HLA-A*68:02): 1.2 nM | Kd (HLA-A*02:01): 34 nM | Kd (HLA-A*02:06): 5.6 nM | Kd (HLA-A*02:02): 11 nM | Kd (HLA-A*02:03): 6.5 nM

GLAAAVVAV
Kd (HLA-A*68:02): 263 nM | Kd (HLA-A*02:01): 9.6 nM | Kd (HLA-A*02:06): 55 nM | Kd (HLA-A*02:02): 31 nM | Kd (HLA-A*02:03): 1.3 nM

ITMGSLFFV
Kd (HLA-A*68:02): 1.1 nM | Kd (HLA-A*02:01): 0.16 nM | Kd (HLA-A*02:06): 0.26 nM | Kd (HLA-A*02:02): 0.64 nM | Kd (HLA-A*02:03): 0.5 nM
